Results on five molecules are retold here after patent US20160024213A1 (VIB VZW, published 2016).

In test [1] the target is T1, Recombinant mouse MMR (R&D Systems) (mouse, UniProt Q61830 20-1388).
T1 construct: Bought from R&D Systems; Immobilised on CM5 chip (SPR) or coated on plates (ELISA); also called mMMR; recombinant mMMR
T1 sequence: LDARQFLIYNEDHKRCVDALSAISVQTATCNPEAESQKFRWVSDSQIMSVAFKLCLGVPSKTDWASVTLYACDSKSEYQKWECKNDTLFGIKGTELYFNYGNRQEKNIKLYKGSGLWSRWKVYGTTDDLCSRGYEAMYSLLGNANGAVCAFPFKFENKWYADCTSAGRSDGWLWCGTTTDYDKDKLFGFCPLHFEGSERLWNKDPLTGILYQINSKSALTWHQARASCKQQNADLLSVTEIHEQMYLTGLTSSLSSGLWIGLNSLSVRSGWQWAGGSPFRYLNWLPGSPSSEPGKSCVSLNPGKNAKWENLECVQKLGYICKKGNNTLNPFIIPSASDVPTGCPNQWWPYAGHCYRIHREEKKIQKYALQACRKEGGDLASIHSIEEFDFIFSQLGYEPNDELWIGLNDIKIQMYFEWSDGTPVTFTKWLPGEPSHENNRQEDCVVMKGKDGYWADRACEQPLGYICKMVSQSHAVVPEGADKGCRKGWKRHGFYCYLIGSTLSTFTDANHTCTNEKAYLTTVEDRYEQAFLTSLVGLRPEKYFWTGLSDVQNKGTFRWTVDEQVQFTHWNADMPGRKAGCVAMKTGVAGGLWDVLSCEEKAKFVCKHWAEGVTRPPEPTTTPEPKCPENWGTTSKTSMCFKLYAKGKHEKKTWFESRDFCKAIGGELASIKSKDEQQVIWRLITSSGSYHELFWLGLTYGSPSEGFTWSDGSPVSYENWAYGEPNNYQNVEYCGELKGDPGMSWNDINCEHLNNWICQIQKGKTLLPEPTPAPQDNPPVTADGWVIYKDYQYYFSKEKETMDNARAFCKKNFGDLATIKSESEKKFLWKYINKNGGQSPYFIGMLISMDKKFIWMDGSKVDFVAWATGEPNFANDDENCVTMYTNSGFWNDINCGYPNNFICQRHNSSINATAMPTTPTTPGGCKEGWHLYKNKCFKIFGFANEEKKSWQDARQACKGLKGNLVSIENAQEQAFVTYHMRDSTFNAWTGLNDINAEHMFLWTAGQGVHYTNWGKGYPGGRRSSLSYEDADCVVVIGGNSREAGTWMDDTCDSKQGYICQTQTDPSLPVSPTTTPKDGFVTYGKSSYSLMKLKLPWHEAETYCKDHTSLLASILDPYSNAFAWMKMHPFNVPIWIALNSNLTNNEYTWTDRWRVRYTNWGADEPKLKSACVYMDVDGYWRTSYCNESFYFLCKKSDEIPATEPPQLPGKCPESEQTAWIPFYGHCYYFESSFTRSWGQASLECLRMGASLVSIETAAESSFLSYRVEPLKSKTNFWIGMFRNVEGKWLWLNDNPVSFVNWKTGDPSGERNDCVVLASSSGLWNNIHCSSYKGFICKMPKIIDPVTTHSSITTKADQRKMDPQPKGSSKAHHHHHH
The experiment in a line: SPR, immobilised recombinant MMR. How it is done:
(§1) Affinity analysis was performed using a BIAcore T100 (GE Healthcare) with HEPES-buffered saline running buffer (10 mM HEPES with 0.15 M NaCl, 3.4 mM EDTA and 0.005% surfactant P20 at pH 7.4). MRR was immobilized on a CM5 chip in acetate buffer 50 mM (pH 5.0), resulting in 2100 RU MMR coated on the chip. A second channel on the same chip was activated/deactivated in a similar way and served as a negative control. The MMR Nanobodies were used as analytes in 11 different concentrations, ranging from 1 to 2000 nM, at a flow rate of […]. Glycine-HCl 50 mM (pH 2.0) was used for elution. The kinetic and equilibrium parameters (kd, ka and KD) values were calculated from the combined sensogram of all concentrations using BIAcore T100 evaluation software 2.02 (GE Healthcare).
Bivalent Nanobodies were constructed by linking two anti-MMR Nanobody 1 entities using (G₄S)₃ ([…]; SEQ ID NO:151), llama IgG2 hinge ([…]; SEQ ID NO:152) or human IgA hinge ([…] SEQ ID NO:153) linkers. […] As a negative control Nanobody in all experiments, we consistently used α-BCII10 Nb, which is a binder of the β-lactamase BCII enzyme of Bacillus cereus.

For test [2], the target named is T1, Recombinant mouse MMR (R&D Systems). In words: SPR, BIAcore T100, MMR on CM5 chip, Nanobody as analyte. The protocol:
as §1
Anti-CD206 (anti-MMR) Nanobodies (Nbs), which are the smallest available antigen-binding entities, were created in order to target MMR-positive cells in vivo. Nanobodies were raised against the recombinant extracellular portion of MMR, as described in the Materials and Methods (see also Table 1). The binding characteristics of the monovalent anti-MMR Nanobodies were compared using surface Plasmon resonance (SPR) measurements (Table 2).

The target is the same in test [3]. In words: SPR, BIAcore T100, mouse MMR on CM5 chip. The protocol:
as §1
(§2) The binding characteristics and affinity of selected Nbs towards the recombinant hMMR and recombinant mMMR antigen was examined in further detail using surface plasmon resonance. A combined sensogram was recorded for each Nb (example for NbhmMMRm3.49 in FIG. 7) and the kinetic and equilibrium parameters (kd, ka and KD) values were calculated (Table 8 and Table 9). Most but not all results on binding to mouse or human rMMR obtained via this SPR analysis are in agreement with the results obtained by PE-ELISA.

Test [4] deals with T2, Recombinant human MMR (R&D Systems) (human, UniProt P22897 19-1383).
T2 construct: Bought from R&D Systems; also called hMMR; recombinant hMMR
T2 sequence: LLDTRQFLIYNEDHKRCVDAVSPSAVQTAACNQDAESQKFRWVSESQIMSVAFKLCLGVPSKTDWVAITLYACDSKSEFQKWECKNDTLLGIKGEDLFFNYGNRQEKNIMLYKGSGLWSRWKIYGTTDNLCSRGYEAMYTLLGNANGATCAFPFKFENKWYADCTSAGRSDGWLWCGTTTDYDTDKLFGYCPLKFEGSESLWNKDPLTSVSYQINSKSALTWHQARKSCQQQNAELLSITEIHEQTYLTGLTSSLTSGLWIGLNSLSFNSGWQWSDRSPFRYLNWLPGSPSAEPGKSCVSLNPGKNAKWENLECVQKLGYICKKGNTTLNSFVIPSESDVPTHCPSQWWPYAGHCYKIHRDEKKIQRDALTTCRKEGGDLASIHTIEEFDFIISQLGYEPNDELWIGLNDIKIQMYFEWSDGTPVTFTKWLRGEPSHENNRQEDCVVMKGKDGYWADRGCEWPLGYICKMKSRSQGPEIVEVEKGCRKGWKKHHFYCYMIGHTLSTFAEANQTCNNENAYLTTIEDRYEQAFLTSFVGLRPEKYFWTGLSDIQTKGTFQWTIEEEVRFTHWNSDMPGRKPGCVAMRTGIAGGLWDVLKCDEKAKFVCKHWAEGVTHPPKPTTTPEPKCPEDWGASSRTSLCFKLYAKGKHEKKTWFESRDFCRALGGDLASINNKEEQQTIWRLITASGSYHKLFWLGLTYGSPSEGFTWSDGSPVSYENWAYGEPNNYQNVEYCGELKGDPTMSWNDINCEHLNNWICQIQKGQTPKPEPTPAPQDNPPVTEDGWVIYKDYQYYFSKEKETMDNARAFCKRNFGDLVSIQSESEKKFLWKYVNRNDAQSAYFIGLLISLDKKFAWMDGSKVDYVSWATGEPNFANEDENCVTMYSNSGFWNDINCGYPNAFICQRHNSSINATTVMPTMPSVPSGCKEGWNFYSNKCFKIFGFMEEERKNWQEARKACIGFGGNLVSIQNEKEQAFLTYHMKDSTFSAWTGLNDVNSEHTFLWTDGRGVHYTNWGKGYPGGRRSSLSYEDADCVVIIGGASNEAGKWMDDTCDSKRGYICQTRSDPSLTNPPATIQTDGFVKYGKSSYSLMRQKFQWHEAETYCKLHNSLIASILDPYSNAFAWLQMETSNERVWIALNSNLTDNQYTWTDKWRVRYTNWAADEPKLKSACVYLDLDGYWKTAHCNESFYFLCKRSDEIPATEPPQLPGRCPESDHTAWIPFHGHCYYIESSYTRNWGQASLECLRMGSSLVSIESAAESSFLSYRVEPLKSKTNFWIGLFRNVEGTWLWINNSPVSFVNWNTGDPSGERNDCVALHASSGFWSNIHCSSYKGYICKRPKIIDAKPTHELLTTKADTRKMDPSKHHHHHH
In words: SPR, BIAcore T100, human MMR on CM5 chip. The protocol:
as §1, §2

One may read the koff as the first-order rate constant of dissociation. The kon is the rate constant with which the complex forms.

B1: Bivalent anti-MMR Nanobody 1 with (Gly4Ser)3 linker (VHH)
chain: QVQLQESGGGLVQPGGSLRLSCAASGNIFSINAIGWYRQAPGKQRELVATITLSGSTNYADSVKGRFSISRDNAKNTVYLQMNSLKPEDTAVYYCNANTYSDSDVYGYWGQGTQVTVSSGGGGSGGGGSGGGGSQVQLQESGGGLVQPGGSLRLSCAASGNIFSINAIGWYRQAPGKQRELVATITLSGSTNYADSVKGRFSISRDNAKNTVYLQMNSLKPEDTAVYYCNANTYSDSDVYGYWGQGTQVTVSSHHHHHH
notes: Bivalent tandem of two clone 1 VHH domains in one chain; also called biv MMR linker 1 GS; MMR biv (Gly4Ser)3
As for B1, the “fold increase in KD (so in the source) compared to the monovalent clone 1 Nanobody” value (“fold increase in KD (so in the source)” for short) in test [1] was determined as 3 fold. Besides, in test [2], the koff was 0.0044 s⁻¹ and the kon was determined as 1.04e+06 M⁻¹ s⁻¹.

B2: Bivalent anti-MMR Nanobody 1 with human IgA hinge linker (VHH)
chain: QVQLQESGGGLVQPGGSLRLSCAASGNIFSINAIGWYRQAPGKQRELVATITLSGSTNYADSVKGRFSISRDNAKNTVYLQMNSLKPEDTAVYYCNANTYSDSDVYGYWGQGTQVTVSSSPSTPPTPSPSTPPASQVQLQESGGGLVQPGGSLRLSCAASGNIFSINAIGWYRQAPGKQRELVATITLSGSTNYADSVKGRFSISRDNAKNTVYLQMNSLKPEDTAVYYCNANTYSDSDVYGYWGQGTQVTVSSHHHHHH
notes: Bivalent tandem of two clone 1 VHH domains in one chain; also called biv MMR linker 3 IgA; MMR biv IgA
In the case of B2, in test [1], the “fold increase in KD (so in the source)” value amounted to 3 fold. In test [2], the koff was determined as 0.00428 s⁻¹ and the kon turned out to be 913000 M⁻¹ s⁻¹.

B3: Anti-MMR Nanobody clone 3 (VHH)
VHH: QVQLQESGGGLVQAGGSLRLSCAASGRTFSRDAMGWFRQAPGKEREFVAGISWSGGSTYYADSVKGRFTISRDGAKNTVNLQMNSLKPEDTAVYYCAASSIYGSAVVDGLYDYWGQGTQVTVSS
notes: Monovalent, His-tagged; also called Anti-MMR Nb3; Nb clone 3
For the molecule B3, the koff in test [3] and in test [2] was 0.0186 s⁻¹ each time. For the same molecule, the kon in test [3] and in test [2] was 97300 M⁻¹ s⁻¹ throughout. Also, the binding result in test [4] is “no binding (tested: analyte 1 to 2000 nM)”.

B4: Anti-MMR Nanobody clone 1 (VHH)
VHH: QVQLQESGGGLVQPGGSLRLSCAASGNIFSINAIGWYRQAPGKQRELVATITLSGSTNYADSVKGRFSISRDNAKNTVYLQMNSLKPEDTAVYYCNANTYSDSDVYGYWGQGTQVTVSS
notes: 99mTc-labelled at the His tail in the in vivo experiments; also called Anti-MMR Nb1; Nb MMR cl1
As for B4, in test [3], the koff came to 0.0133 s⁻¹ and the kon was 576000 M⁻¹ s⁻¹. The binding result in test [4] is “no binding (tested: analyte 1 to 2000 nM)”. Also, in test [2], the koff was determined as 0.0133 s⁻¹ and the kon worked out at 576000 M⁻¹ s⁻¹.

B5: Bivalent anti-MMR Nanobody 1 with llama IgG2 hinge linker (VHH)
chain: QVQLQESGGGLVQPGGSLRLSCAASGNIFSINAIGWYRQAPGKQRELVATITLSGSTNYADSVKGRFSISRDNAKNTVYLQMNSLKPEDTAVYYCNANTYSDSDVYGYWGQGTQVTVSSAHHSEDPSSKAPKAPMAQVQLQESGGGLVQPGGSLRLSCAASGNIFSINAIGWYRQAPGKQRELVATITLSGSTNYADSVKGRFSISRDNAKNTVYLQMNSLKPEDTAVYYCNANTYSDSDVYGYWGQGTQVTVSSHHHHHH
notes: Bivalent tandem of two clone 1 VHH domains in one chain; also called biv MMR linker 2 g2c; MMR biv g2c
For the molecule B5, the “fold increase in KD (so in the source)” value in test [1] came to 3 fold. Moreover, in test [2], the koff was determined as 0.00411 s⁻¹ and the kon turned out to be 1.02e+06 M⁻¹ s⁻¹.
